US20230218738A1 (Pfizer, published 2023)

T1: RSV F protein mutant pXCS852 (RSV A2, UniProt P03420 26-109)
T1 chain 1: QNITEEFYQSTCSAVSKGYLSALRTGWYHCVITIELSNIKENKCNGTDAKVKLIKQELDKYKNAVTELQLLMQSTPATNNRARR
T1 chain 2: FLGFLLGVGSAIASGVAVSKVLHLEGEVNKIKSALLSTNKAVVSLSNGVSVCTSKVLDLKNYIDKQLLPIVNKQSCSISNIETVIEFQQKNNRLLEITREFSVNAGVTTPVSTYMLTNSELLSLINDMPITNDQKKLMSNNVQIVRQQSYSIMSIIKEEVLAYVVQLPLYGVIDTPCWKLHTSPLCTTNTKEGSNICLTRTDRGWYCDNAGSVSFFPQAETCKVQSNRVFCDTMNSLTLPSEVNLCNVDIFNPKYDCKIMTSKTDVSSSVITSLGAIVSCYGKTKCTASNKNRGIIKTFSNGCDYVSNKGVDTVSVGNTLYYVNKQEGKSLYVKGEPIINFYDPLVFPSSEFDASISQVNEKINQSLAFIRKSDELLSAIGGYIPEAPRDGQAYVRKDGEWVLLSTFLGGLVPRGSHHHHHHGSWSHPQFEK

T2: RSV F protein mutant pXCS880 (RSV A2, UniProt P03420 26-109)
T2 chain 1: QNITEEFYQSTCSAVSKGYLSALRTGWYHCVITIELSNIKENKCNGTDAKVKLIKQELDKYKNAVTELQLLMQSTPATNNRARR
T2 chain 2: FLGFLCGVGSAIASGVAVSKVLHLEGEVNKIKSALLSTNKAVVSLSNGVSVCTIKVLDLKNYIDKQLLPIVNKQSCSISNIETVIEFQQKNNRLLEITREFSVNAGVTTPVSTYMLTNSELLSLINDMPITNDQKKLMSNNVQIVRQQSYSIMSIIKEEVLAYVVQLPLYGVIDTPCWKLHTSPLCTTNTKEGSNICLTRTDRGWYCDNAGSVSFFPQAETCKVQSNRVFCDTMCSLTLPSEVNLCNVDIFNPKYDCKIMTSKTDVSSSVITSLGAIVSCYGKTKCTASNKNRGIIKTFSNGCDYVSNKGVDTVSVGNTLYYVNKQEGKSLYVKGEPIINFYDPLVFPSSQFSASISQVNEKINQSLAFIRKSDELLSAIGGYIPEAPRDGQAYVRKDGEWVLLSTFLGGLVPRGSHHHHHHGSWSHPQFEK

T3: RSV F protein mutant pXCS888 (RSV A2, UniProt P03420 26-109)
T3 chain 1: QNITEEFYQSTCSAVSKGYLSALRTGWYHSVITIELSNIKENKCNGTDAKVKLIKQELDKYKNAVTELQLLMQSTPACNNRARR
T3 chain 2: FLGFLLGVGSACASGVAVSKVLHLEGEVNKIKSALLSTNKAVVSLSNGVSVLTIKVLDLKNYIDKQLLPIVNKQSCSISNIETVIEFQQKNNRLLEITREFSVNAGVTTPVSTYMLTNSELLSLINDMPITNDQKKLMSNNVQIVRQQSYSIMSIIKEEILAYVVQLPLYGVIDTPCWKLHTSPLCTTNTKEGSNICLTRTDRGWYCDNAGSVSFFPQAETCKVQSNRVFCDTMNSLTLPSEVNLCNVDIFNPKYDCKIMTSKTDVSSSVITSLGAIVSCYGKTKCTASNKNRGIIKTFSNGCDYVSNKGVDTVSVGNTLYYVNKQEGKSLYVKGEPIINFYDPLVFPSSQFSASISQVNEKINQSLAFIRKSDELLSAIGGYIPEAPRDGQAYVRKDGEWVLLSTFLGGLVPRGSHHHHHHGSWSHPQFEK

T4: RSV F protein mutant pXCS892 (RSV A2, UniProt P03420 26-109)
T4 chain 1: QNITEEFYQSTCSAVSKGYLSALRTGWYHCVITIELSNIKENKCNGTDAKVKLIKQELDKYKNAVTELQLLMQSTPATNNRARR
T4 chain 2: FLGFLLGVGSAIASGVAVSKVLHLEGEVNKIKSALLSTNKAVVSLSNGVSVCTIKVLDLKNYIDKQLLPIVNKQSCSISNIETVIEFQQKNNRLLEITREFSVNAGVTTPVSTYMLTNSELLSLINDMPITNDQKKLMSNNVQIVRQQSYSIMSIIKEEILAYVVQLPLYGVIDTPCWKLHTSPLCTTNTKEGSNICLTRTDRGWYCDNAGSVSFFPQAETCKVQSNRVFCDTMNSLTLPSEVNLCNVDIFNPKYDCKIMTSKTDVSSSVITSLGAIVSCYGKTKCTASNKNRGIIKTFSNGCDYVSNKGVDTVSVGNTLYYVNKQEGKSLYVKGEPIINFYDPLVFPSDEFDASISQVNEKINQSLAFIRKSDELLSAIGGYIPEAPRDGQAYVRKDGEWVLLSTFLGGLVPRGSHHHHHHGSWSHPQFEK


Assays:
Test in all cases: BLI (Octet), F on anti-HIS tip, 20 nM mAb
[1] = molecular target: RSV F protein mutant pXCS754 (RSV A2, UniProt P03420 26-109)
[2] = molecular target: RSV F protein mutant pXCS847 (RSV A2, UniProt P03420 26-109)
[3] = molecular target: RSV F protein mutant pXCS850 (RSV A2, UniProt P03420 26-109)
[4] = molecular target: T1, RSV F protein mutant pXCS852
[5] = molecular target: RSV F protein mutant pXCS885 (RSV A2, UniProt P03420 26-109)
[6] = molecular target: T2, RSV F protein mutant pXCS880
[7] = molecular target: RSV F protein mutant pXCS782 (RSV A2, UniProt P03420 26-109)
[8] = molecular target: RSV F protein mutant pXCS758 (RSV A2, UniProt P03420 26-109)
[9] = molecular target: RSV F protein mutant pXCS891 (RSV A2, UniProt P03420 26-109)
[10] = molecular target: T3, RSV F protein mutant pXCS888
[11] = molecular target: T4, RSV F protein mutant pXCS892
[12] = molecular target: RSV F protein mutant pXCS781 (RSV A2, UniProt P03420 26-109)

Binder | Response (nm shift) [1] [nm] | Response (nm shift) [2] [nm] | Response (nm shift) [3] [nm] | Response (nm shift) [4] [nm] | Response (nm shift) [5] [nm] | Response (nm shift) [6] [nm] | Response (nm shift) [7] [nm] | Response (nm shift) [8] [nm] | Response (nm shift) [9] [nm] | Response (nm shift) [10] [nm] | Response (nm shift) [11] [nm] | Response (nm shift) [12] [nm]
MPE8 (antibody, V domains shown, also called MPEG) VH: EVQLVESGGGLVKPGGSLRLSCAASGFTFSSYSMNWVRQAPGKGLEWVSSISASSSYSDYADSAKGRFTISRDNAKTSLFLQMNSLRAEDTAIYFCARARATGYSSITPYFDIWGQGTLVTVSS VL: QSVVTQTPSVSGAPGQRVTISCTGSSSNIGAGYDVHWYQQLPGTAPKLLIYDNNNRPSGVPDRFSASKSGTSASLAITGLQAEDEADYYCQSYDRNLSGVFGTGTKVTVL | 0.676 | 0.871 | 1.04 | 1.13 | 0.408 | 0.684 | 0.513 | 0.816 | 0.92 | 0.878 | 1.03 | 0.876
AM22 (antibody, V domains shown) VH: QVQLVQSGAEVKKPGATVKVSCKISGHTLIKLSIHWVRQAPGKGLEWMGGYEGEVDEIFYAQKFQHRLTVIADTATDTVYMELGRLTSDDTAVYFCGTLGVTVTEAGLGIDDYWGQGTLVTVSS VL: EIVLTQSPGTLSLSPGERATLSCRASQIVSRNHLAWYQQKPGQAPRLLIFGASSRATGIPVRFSGSGSGTDFTLTINGLAPEDFAVYYCLSSDSSIFTFGPGTKVDFK | 0.298 | 0.484 | 0.517 | 0.565 | 0.105 | 0.213 | 0.222 | 0.273 | 0.461 | 0.434 | 0.542 | 0.423
